Measurements taken from patent US20150315260A1 (Sanofi, published 2015).
Starred links: 1 amine or outer side, 2 acyl side, 3 side chain; linkers in the order of their positions; H or OH if unused. Non-standard residues stand in square brackets, D forms with d. Groups on a side chain read outwards from the residue. No end group written: not given here. *: point of attachment. γGlu = O=C(O)[C@H](CCC(=O)[*:2])N[*:1]; Stearoyl = CCCCCCCCCCCCCCCCCC(=O)*; Palmitoyl = CCCCCCCCCCCCCCCC(=O)*; Aib = CC(C)(N)C(=O)O

T1: human GIP receptor (human, UniProt P48546 22-466)
T1 sequence (looked up): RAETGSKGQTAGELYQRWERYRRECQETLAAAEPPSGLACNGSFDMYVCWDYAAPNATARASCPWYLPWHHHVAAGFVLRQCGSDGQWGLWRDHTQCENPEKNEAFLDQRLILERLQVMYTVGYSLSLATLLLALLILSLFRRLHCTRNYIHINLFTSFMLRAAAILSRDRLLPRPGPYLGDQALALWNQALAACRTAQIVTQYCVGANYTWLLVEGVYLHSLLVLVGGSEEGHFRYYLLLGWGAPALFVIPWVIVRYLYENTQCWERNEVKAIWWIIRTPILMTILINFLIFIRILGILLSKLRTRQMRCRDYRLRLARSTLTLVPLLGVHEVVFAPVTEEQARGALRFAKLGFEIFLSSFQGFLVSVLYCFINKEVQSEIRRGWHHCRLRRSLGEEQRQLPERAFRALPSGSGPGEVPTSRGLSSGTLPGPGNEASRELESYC

B1: exendin-4 derivative SEQ ID NO: 8 (peptide)
peptide: H[Aib]QGTFTSDLSKQK([γGlu-γGlu-Palmitoyl])DEQRAKLFIEWL[Aib]AGGPSSGAPPPS-NH2
modifications: N-terminus assumed
SMILES: CCCCCCCCCCCCCCCC(=O)N[C@@H](CCC(=O)N[C@@H](CCC(=O)NCCCC[C@H](NC(=O)[C@H](CCC(N)=O)NC(=O)[C@H](CCCCN)NC(=O)[C@H](CO)NC(=O)[C@H](CC(C)C)NC(=O)[C@H](CC(=O)O)NC(=O)[C@H](CO)NC(=O)[C@@H](NC(=O)[C@H](Cc1ccccc1)NC(=O)[C@@H](NC(=O)CNC(=O)[C@H](CCC(N)=O)NC(=O)C(C)(C)NC(=O)[C@@H](N)Cc1c[nH]cn1)[C@@H](C)O)[C@@H](C)O)C(=O)N[C@@H](CC(=O)O)C(=O)N[C@@H](CCC(=O)O)C(=O)N[C@@H](CCC(N)=O)C(=O)N[C@@H](CCCNC(=N)N)C(=O)N[C@@H](C)C(=O)N[C@@H](CCCCN)C(=O)N[C@@H](CC(C)C)C(=O)N[C@@H](Cc1ccccc1)C(=O)N[C@H](C(=O)N[C@@H](CCC(=O)O)C(=O)N[C@@H](Cc1c[nH]c2ccccc12)C(=O)N[C@@H](CC(C)C)C(=O)NC(C)(C)C(=O)N[C@@H](C)C(=O)NCC(=O)NCC(=O)N1CCC[C@H]1C(=O)N[C@@H](CO)C(=O)N[C@@H](CO)C(=O)NCC(=O)N[C@@H](C)C(=O)N1CCC[C@H]1C(=O)N1CCC[C@H]1C(=O)N1CCC[C@H]1C(=O)N[C@@H](CO)C(N)=O)[C@@H](C)CC)C(=O)O)C(=O)O
B2: exendin-4 derivative SEQ ID NO: 9 (peptide)
peptide: H[Aib]QGTFTSDLSKQK([γGlu-Stearoyl])DEQRAKLFIEWL[Aib]AGGPSSGAPPPS-NH2
modifications: N-terminus assumed
SMILES: CCCCCCCCCCCCCCCCCC(=O)N[C@@H](CCC(=O)NCCCC[C@H](NC(=O)[C@H](CCC(N)=O)NC(=O)[C@H](CCCCN)NC(=O)[C@H](CO)NC(=O)[C@H](CC(C)C)NC(=O)[C@H](CC(=O)O)NC(=O)[C@H](CO)NC(=O)[C@@H](NC(=O)[C@H](Cc1ccccc1)NC(=O)[C@@H](NC(=O)CNC(=O)[C@H](CCC(N)=O)NC(=O)C(C)(C)NC(=O)[C@@H](N)Cc1c[nH]cn1)[C@@H](C)O)[C@@H](C)O)C(=O)N[C@@H](CC(=O)O)C(=O)N[C@@H](CCC(=O)O)C(=O)N[C@@H](CCC(N)=O)C(=O)N[C@@H](CCCNC(=N)N)C(=O)N[C@@H](C)C(=O)N[C@@H](CCCCN)C(=O)N[C@@H](CC(C)C)C(=O)N[C@@H](Cc1ccccc1)C(=O)N[C@H](C(=O)N[C@@H](CCC(=O)O)C(=O)N[C@@H](Cc1c[nH]c2ccccc12)C(=O)N[C@@H](CC(C)C)C(=O)NC(C)(C)C(=O)N[C@@H](C)C(=O)NCC(=O)NCC(=O)N1CCC[C@H]1C(=O)N[C@@H](CO)C(=O)N[C@@H](CO)C(=O)NCC(=O)N[C@@H](C)C(=O)N1CCC[C@H]1C(=O)N1CCC[C@H]1C(=O)N1CCC[C@H]1C(=O)N[C@@H](CO)C(N)=O)[C@@H](C)CC)C(=O)O
B3: exendin-4 derivative SEQ ID NO: 10 (peptide)
peptide: H[Aib]QGTFTSDLSKQK([γGlu-Palmitoyl])DEQRAKLFIEWL[Aib]AGGPSSGAPPPS-NH2
modifications: N-terminus assumed
SMILES: CCCCCCCCCCCCCCCC(=O)N[C@@H](CCC(=O)NCCCC[C@H](NC(=O)[C@H](CCC(N)=O)NC(=O)[C@H](CCCCN)NC(=O)[C@H](CO)NC(=O)[C@H](CC(C)C)NC(=O)[C@H](CC(=O)O)NC(=O)[C@H](CO)NC(=O)[C@@H](NC(=O)[C@H](Cc1ccccc1)NC(=O)[C@@H](NC(=O)CNC(=O)[C@H](CCC(N)=O)NC(=O)C(C)(C)NC(=O)[C@@H](N)Cc1c[nH]cn1)[C@@H](C)O)[C@@H](C)O)C(=O)N[C@@H](CC(=O)O)C(=O)N[C@@H](CCC(=O)O)C(=O)N[C@@H](CCC(N)=O)C(=O)N[C@@H](CCCNC(=N)N)C(=O)N[C@@H](C)C(=O)N[C@@H](CCCCN)C(=O)N[C@@H](CC(C)C)C(=O)N[C@@H](Cc1ccccc1)C(=O)N[C@H](C(=O)N[C@@H](CCC(=O)O)C(=O)N[C@@H](Cc1c[nH]c2ccccc12)C(=O)N[C@@H](CC(C)C)C(=O)NC(C)(C)C(=O)N[C@@H](C)C(=O)NCC(=O)NCC(=O)N1CCC[C@H]1C(=O)N[C@@H](CO)C(=O)N[C@@H](CO)C(=O)NCC(=O)N[C@@H](C)C(=O)N1CCC[C@H]1C(=O)N1CCC[C@H]1C(=O)N1CCC[C@H]1C(=O)N[C@@H](CO)C(N)=O)[C@@H](C)CC)C(=O)O
B4: exendin-4 derivative SEQ ID NO: 12 (peptide)
peptide: H[Aib]QGTFTSDLSKQK([γGlu-γGlu-Palmitoyl])DEQRAKLFIEWL[Aib]S[dA]GPSSGAPPPS-NH2
modifications: N-terminus assumed
SMILES: CCCCCCCCCCCCCCCC(=O)N[C@@H](CCC(=O)N[C@@H](CCC(=O)NCCCC[C@H](NC(=O)[C@H](CCC(N)=O)NC(=O)[C@H](CCCCN)NC(=O)[C@H](CO)NC(=O)[C@H](CC(C)C)NC(=O)[C@H](CC(=O)O)NC(=O)[C@H](CO)NC(=O)[C@@H](NC(=O)[C@H](Cc1ccccc1)NC(=O)[C@@H](NC(=O)CNC(=O)[C@H](CCC(N)=O)NC(=O)C(C)(C)NC(=O)[C@@H](N)Cc1c[nH]cn1)[C@@H](C)O)[C@@H](C)O)C(=O)N[C@@H](CC(=O)O)C(=O)N[C@@H](CCC(=O)O)C(=O)N[C@@H](CCC(N)=O)C(=O)N[C@@H](CCCNC(=N)N)C(=O)N[C@@H](C)C(=O)N[C@@H](CCCCN)C(=O)N[C@@H](CC(C)C)C(=O)N[C@@H](Cc1ccccc1)C(=O)N[C@H](C(=O)N[C@@H](CCC(=O)O)C(=O)N[C@@H](Cc1c[nH]c2ccccc12)C(=O)N[C@@H](CC(C)C)C(=O)NC(C)(C)C(=O)N[C@@H](CO)C(=O)N[C@H](C)C(=O)NCC(=O)N1CCC[C@H]1C(=O)N[C@@H](CO)C(=O)N[C@@H](CO)C(=O)NCC(=O)N[C@@H](C)C(=O)N1CCC[C@H]1C(=O)N1CCC[C@H]1C(=O)N1CCC[C@H]1C(=O)N[C@@H](CO)C(N)=O)[C@@H](C)CC)C(=O)O)C(=O)O
B5: exendin-4 derivative SEQ ID NO: 11 (peptide)
peptide: H[Aib]QGTFTSDLSKQK([γGlu-Palmitoyl])DEQRAKLFIEWL[Aib]A[dA]GPSSGAPPPS-NH2
modifications: N-terminus assumed
SMILES: CCCCCCCCCCCCCCCC(=O)N[C@@H](CCC(=O)NCCCC[C@H](NC(=O)[C@H](CCC(N)=O)NC(=O)[C@H](CCCCN)NC(=O)[C@H](CO)NC(=O)[C@H](CC(C)C)NC(=O)[C@H](CC(=O)O)NC(=O)[C@H](CO)NC(=O)[C@@H](NC(=O)[C@H](Cc1ccccc1)NC(=O)[C@@H](NC(=O)CNC(=O)[C@H](CCC(N)=O)NC(=O)C(C)(C)NC(=O)[C@@H](N)Cc1c[nH]cn1)[C@@H](C)O)[C@@H](C)O)C(=O)N[C@@H](CC(=O)O)C(=O)N[C@@H](CCC(=O)O)C(=O)N[C@@H](CCC(N)=O)C(=O)N[C@@H](CCCNC(=N)N)C(=O)N[C@@H](C)C(=O)N[C@@H](CCCCN)C(=O)N[C@@H](CC(C)C)C(=O)N[C@@H](Cc1ccccc1)C(=O)N[C@H](C(=O)N[C@@H](CCC(=O)O)C(=O)N[C@@H](Cc1c[nH]c2ccccc12)C(=O)N[C@@H](CC(C)C)C(=O)NC(C)(C)C(=O)N[C@@H](C)C(=O)N[C@H](C)C(=O)NCC(=O)N1CCC[C@H]1C(=O)N[C@@H](CO)C(=O)N[C@@H](CO)C(=O)NCC(=O)N[C@@H](C)C(=O)N1CCC[C@H]1C(=O)N1CCC[C@H]1C(=O)N1CCC[C@H]1C(=O)N[C@@H](CO)C(N)=O)[C@@H](C)CC)C(=O)O
B6: exendin-4 derivative SEQ ID NO: 14 (peptide)
peptide: H[Aib]QGTFTSDLSKQK([γGlu-γGlu-Palmitoyl])DEQRAKLFIEWL[Aib]K[dA]GPSSGAPPPS-NH2
modifications: N-terminus assumed
SMILES: CCCCCCCCCCCCCCCC(=O)N[C@@H](CCC(=O)N[C@@H](CCC(=O)NCCCC[C@H](NC(=O)[C@H](CCC(N)=O)NC(=O)[C@H](CCCCN)NC(=O)[C@H](CO)NC(=O)[C@H](CC(C)C)NC(=O)[C@H](CC(=O)O)NC(=O)[C@H](CO)NC(=O)[C@@H](NC(=O)[C@H](Cc1ccccc1)NC(=O)[C@@H](NC(=O)CNC(=O)[C@H](CCC(N)=O)NC(=O)C(C)(C)NC(=O)[C@@H](N)Cc1c[nH]cn1)[C@@H](C)O)[C@@H](C)O)C(=O)N[C@@H](CC(=O)O)C(=O)N[C@@H](CCC(=O)O)C(=O)N[C@@H](CCC(N)=O)C(=O)N[C@@H](CCCNC(=N)N)C(=O)N[C@@H](C)C(=O)N[C@@H](CCCCN)C(=O)N[C@@H](CC(C)C)C(=O)N[C@@H](Cc1ccccc1)C(=O)N[C@H](C(=O)N[C@@H](CCC(=O)O)C(=O)N[C@@H](Cc1c[nH]c2ccccc12)C(=O)N[C@@H](CC(C)C)C(=O)NC(C)(C)C(=O)N[C@@H](CCCCN)C(=O)N[C@H](C)C(=O)NCC(=O)N1CCC[C@H]1C(=O)N[C@@H](CO)C(=O)N[C@@H](CO)C(=O)NCC(=O)N[C@@H](C)C(=O)N1CCC[C@H]1C(=O)N1CCC[C@H]1C(=O)N1CCC[C@H]1C(=O)N[C@@H](CO)C(N)=O)[C@@H](C)CC)C(=O)O)C(=O)O

Target: human glucagon receptor (human, UniProt P47871 26-477)
Sequence (P47871 26-477): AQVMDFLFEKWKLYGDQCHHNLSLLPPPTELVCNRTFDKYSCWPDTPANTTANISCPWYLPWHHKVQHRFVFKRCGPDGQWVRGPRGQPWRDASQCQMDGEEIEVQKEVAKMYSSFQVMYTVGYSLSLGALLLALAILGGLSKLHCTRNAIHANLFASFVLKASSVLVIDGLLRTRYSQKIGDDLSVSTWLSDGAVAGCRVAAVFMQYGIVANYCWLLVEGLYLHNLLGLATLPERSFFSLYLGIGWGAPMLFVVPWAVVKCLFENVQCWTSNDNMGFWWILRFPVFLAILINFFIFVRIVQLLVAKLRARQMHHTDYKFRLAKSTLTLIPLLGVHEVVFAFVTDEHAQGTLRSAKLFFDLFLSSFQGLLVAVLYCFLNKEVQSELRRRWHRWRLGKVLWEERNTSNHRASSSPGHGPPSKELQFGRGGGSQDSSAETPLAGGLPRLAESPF
Test: cell-based or functional assay

Binder	EC50 hGlucagon-R (cAMP formation)
B1	0.0281 nM
H[Aib]QGTFTSDLSKQK([γGlu-γGlu-Palmitoyl])DEQRAKLFIEWL[Aib]KGGPSSGAPPPS-NH2 [exendin-4 derivative SEQ ID NO: 15]	0.0426 nM
B2	0.0154 nM
B3	0.0524 nM
B4	0.13 nM
B5	0.261 nM
B6	0.194 nM
H[Aib]QGTFTSDLSKQK([γGlu-γGlu-Palmitoyl])DEQRAKLFIEWL[Aib]SGGPSSGAPPPS-NH2 [exendin-4 derivative SEQ ID NO: 13]	0.0228 nM

Target: T1, human GIP receptor
Test: cell-based or functional assay

Binder	EC50 hGIP-R (cAMP formation)
B1	2.14 nM
H[Aib]QGTFTSDLSKQK([γGlu-γGlu-Palmitoyl])DEQRAKLFIEWL[Aib]KGGPSSGAPPPS-NH2 [exendin-4 derivative SEQ ID NO: 15]	1.85 nM
B2	1.16 nM
B3	0.89 nM
B4	8.29 nM
B5	13.4 nM
B6	6.53 nM
H[Aib]QGTFTSDLSKQK([γGlu-γGlu-Palmitoyl])DEQRAKLFIEWL[Aib]SGGPSSGAPPPS-NH2 [exendin-4 derivative SEQ ID NO: 13]	2.39 nM

Target: human GLP-1 receptor (human, UniProt P43220 24-463)
Test: cell-based or functional assay

Binder	EC50 hGLP-1R (cAMP formation)
B1	0.0023 nM
B2	0.0064 nM
B3	0.0035 nM
B4	0.0037 nM
B5	0.0103 nM
B6	0.0041 nM
